Experimental data as given in patent US20030091568A1, “Inhibitors for the formation of soluble human CD23” (priority 2000, published 2003).

T1: ADAM9 (Homo sapiens, UniProt Q13443)
T1 construct: endogenous in cells
T1 sequence (Q13443 29-819): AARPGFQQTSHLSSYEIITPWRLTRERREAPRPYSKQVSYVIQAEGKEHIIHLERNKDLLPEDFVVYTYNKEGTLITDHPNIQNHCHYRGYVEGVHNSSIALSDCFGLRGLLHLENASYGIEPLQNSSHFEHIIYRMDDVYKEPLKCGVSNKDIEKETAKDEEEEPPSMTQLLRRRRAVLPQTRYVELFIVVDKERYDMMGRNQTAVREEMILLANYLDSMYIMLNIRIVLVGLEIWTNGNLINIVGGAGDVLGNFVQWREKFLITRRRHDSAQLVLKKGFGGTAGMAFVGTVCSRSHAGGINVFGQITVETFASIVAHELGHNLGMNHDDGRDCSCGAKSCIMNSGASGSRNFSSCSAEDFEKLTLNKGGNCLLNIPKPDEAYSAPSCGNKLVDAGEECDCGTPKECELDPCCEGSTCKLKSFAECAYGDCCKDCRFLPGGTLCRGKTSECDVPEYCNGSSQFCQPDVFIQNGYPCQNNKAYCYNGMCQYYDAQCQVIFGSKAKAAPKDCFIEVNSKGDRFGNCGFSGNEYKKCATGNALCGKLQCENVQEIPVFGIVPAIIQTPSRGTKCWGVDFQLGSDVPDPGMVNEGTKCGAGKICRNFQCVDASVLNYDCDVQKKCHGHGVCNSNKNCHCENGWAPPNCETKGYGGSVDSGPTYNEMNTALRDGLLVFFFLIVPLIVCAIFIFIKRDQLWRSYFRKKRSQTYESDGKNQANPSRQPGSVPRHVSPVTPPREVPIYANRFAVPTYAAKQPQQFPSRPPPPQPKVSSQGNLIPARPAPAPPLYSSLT

B1: TIMP-3: tissue inhibitor of metalloproteinases 3 (protein, UniProt P35625 24-211, looked up)
Metalloproteinase inhibitor 3: CTCSPSHPQDAFCNSDIVIRAKVVGKKLVKEGPFGTLVYTIKQMKMYRGFTKMPHVQYIHTEASESLCGLKLEVNKYQYLLTGRVYDGKMYTGLCNFVERWDQLTLSQRKGLNYRYHLGCNCKIKSCYYLPCFVTSKNECLWTDMLSNFGYPGYQSKHYACIRQKGGYCSWYRGWAPPDKSIINATDP

Columns and labels:
ADAM9 = target: T1, ADAM9; experiment: Shedding of CD23 from human B cell line P493-6 (c-myc "On", endogenous ADAM9); type: cell-based; details: TIMP concentrations known to inhibit MMPs, MT-MMPs, ADAM10 and ADAM17, FIG. 6a
Text: TIMP-1, -2 and -3 are known to inhibit all known secreted matrix metalloproteinases (MMPs), membrane-type matrix metalloproteinases (MT-MMPs), as well as ADAM10 (inhibited by TIMP-1 and TIMP-3) and ADAM17 (TACE, inhibited by TIMP-3 only). In contrast, it has been shown that membrane bound ADAM9 is not inhibited by either TIMP-1, -2 or -3 (see Example 3, FIG. 3). Using the human B cell line P493-6 with a tetracycline regulatable c-myc gene allowed the upregulation of endogeneous ADAM9 via upregulation of c-myc. […] The decrease in cell surface bound CD23 correlated with the increase in the s-CD23 concentration in the culture medium assayed by ELISA (CD23 ELISA kit, Becton Dickinson, and CD23 ELISA kit, the Binding Site). […]
To inhibit matrix metalloproteinase activity, aliquots of the cells studied (transfected CHO AA8, […]) were washed three-times in serum free medium and further cultured either in the presence (1 μM TC) or absence of TC for 24-48 h, either in the presence of 2 μM batimastat (BB-94, British Biotechnology) or 20 nM-1 μM of either TIMP-1, -2, or TIMP-3. […] Surface CD23 in the presence of either of the inhibitors was quantitated by FACS analyses using a FITC-labelled monoclonal antibody against human CD23 and compared to cells cultured in the absence of the respective inhibitor. […]

ADAM17 (TACE) = ADAM17 (TACE) (Homo sapiens, UniProt P78536); details: stated as known; cited from earlier work
ADAM17 (TACE), sequence (P78536 215-824, species assumed): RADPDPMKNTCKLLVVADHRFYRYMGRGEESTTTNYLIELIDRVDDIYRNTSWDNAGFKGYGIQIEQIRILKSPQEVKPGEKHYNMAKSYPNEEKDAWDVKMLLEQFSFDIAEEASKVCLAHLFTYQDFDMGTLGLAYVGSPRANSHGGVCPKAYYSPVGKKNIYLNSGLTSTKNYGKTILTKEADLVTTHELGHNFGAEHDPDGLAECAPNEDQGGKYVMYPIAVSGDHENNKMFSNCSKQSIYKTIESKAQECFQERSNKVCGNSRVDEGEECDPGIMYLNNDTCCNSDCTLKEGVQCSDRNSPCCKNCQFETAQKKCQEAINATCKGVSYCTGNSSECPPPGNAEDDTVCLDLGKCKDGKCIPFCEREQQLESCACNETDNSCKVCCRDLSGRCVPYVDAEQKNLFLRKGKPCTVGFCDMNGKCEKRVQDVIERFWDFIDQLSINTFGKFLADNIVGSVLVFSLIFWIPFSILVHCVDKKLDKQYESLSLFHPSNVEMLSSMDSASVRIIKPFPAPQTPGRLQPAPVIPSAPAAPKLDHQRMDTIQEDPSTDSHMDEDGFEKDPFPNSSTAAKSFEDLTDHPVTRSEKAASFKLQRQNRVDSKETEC

Molecule	inhibition of CD23 shedding (s-CD23 in culture medium, ELISA) (ADAM9)	inhibition of ADAM17 (TACE) (ADAM17 (TACE))
TIMP-1: tissue inhibitor of metalloproteinases 1	could not be inhibited	–
B1	could not be inhibited	inhibited
